Measured values published in patent publication US10138280B2, “Polypeptides targeting glycosylated MUC2 proteins, methods of synthesis, their nucleic acids and uses thereof” (INSTITUT PASTEUR, priority 2011, dated 2018).

Experiments:
rabbit colonic mucus = test: Mucus staining on fixed tissues, rabbit colon
Protocol: FIGS. 8A-8D. (FIG. 8A) Cell toxicity of Cy5-MUB70 tested on HT-29-MTX and Hela epithelial cells. Cell survival was assessed using Sytoxgreen dye on cultures exposed to 1 μg/mL Cy5-MUB70 from 0 to 10 h, as indicated. NS indicates P>0.05 (Student's T-test). (FIG. 8B) Rabbit colonic and ileal mucus staining on fixed tissues (PFA 4%), using Cy5-MUB70 (1 μg/mL) (blue). Actin is stained in red (Phall.-RRX). Bar is 50 μm. (FIG. 8C) Human ex vivo colon sample was incubated for 2 h with 1 μg/mL Cy5-MUB70 in a serum-free media. Resulting fluorescent staining was assessed using a two-photons microscope (see Methods). Z-projection, performed using ImageJ software, allows 3D localization of Cy5-MUB70 fluorescence signal. Bar is 100 μm. Colon scheme: firmly (f) and loosely (I) attached colonic mucus layers are represented at the surface of the epithelium (e). (FIG. 8D) Kinetics of colonic mucus with Cy5-MUB70. […] Human tissue autofluorescence is detected in the same red channel as Cy5.
FIGS. 9A-9B. (FIG. 9A) Co-localization of Muc2 (green) and Cy5-MUB (blue) performed by immunofluorescent detection on human mucus extract collected on ex vivo tissues using an epifluorescent microscope. Bar is 50 μm. (FIG. 9B) Co-localization of Muc2 (green) and Cy5-MUB (blue) observed on fixed (PFA 4%) rabbit colon samples. Actin is stained in red (Phall.RRX). Observations are performed using a confocal microscope. […]

human colonic mucus = target: T1, human colonic mucus (Homo sapiens, UniProt Q02817); test: Staining of human colon explants, two-photons microscopy
T1 construct: Segments of human colon (ascending, descending and sigmoid colon) were obtained from fully informed patients undergoing surgery; from tissue; host or cells: healthy human colon segments (live explants, mucus collected from them, Carnoy- or formol-fixed sections)
Protocol: FIGS. 3A-3B. Cy5-MUB70 colonic mucus binding property. (FIG. 3A) HT-29 MTX living cells were incubated for 2 h with Cy5-MUB70 in a serum-free media. The resulting fluorescent signal (red) was visualized at the surface of the cell layer using an epifluorescent microscope. Z-projection, performed using ImageJ software, allowed 3D localization of Cy5-MUB70 fluorescence signal in the mucus layer. Bar is 10 μm (FIG. 3B) MPE and SHG imaging of the binding of Cy5-MUB70 to the human colonic mucus. […] Human tissue autofluorescence is detected in the same red channel as Cy5.
FIGS. 8A-8D. (FIG. 8A) Cell toxicity of Cy5-MUB70 tested on HT-29-MTX and Hela epithelial cells. Cell survival was assessed using Sytoxgreen dye on cultures exposed to 1 μg/mL Cy5-MUB70 from 0 to 10 h, as indicated. […] Resulting fluorescent staining was assessed using a two-photons microscope (see Methods). Z-projection, performed using ImageJ software, allows 3D localization of Cy5-MUB70 fluorescence signal. […] Human tissue autofluorescence is detected in the same red channel as Cy5. […]
Two-photons microscopy imaging of live healthy human colonic segment was performed using a commercial laser-scanning microscope (LSM710, Meta, Zeiss, Germany). Tissue autofluorescence and Cy5-MUB70 (1 μg·ml^−1) were detected using multiphoton excitation (MPE, red) and collagen was detected using second harmonic generation (SHG, green). […]

B1: Cy5-MUB70: Cy5-labelled MUB70 polypeptide, labelled via Cy5 maleimide on N-terminal cysteine (conjugate)
peptide: CVHVQYIDGETDQMLRQDDLDGYTDETIPYSTAEGIKKFEGDGYELFKDNFPAGEKFDNDDTNDQFYTVIF
B1 was tested, and the “colocalization with Muc2” value (rabbit colonic mucus; fixed rabbit colon samples) was “colocalization detection of Muc2 and Cy5-MUB70”, the colonic mucus staining (rabbit colonic mucus; rabbit colon, fixed tissue, 1 μg/mL) was “confirmed” and the “incubation time after which probe is widely detected in mucus layer” value (human colonic mucus; 1 mm thick mucus layer, human colon explant) was 90 min. For the same molecule, the “mucus layer staining on human colon explants” value (human colonic mucus; ex vivo, 1 μg/mL, mucus width around 1000 μm, epithelium and lamina propria unstained) was “stained heterogeneously on the whole width”.
